Results: patent US20250019454A1 (BIOCYTOGEN PHARMACEUTICALS BEIJING, published 2025)

T1: human TNFR2 (expressed on cells) (human, UniProt P20333 23-461)
T1 construct: also called hTNFR2; human TNF Receptor 2
T1 sequence: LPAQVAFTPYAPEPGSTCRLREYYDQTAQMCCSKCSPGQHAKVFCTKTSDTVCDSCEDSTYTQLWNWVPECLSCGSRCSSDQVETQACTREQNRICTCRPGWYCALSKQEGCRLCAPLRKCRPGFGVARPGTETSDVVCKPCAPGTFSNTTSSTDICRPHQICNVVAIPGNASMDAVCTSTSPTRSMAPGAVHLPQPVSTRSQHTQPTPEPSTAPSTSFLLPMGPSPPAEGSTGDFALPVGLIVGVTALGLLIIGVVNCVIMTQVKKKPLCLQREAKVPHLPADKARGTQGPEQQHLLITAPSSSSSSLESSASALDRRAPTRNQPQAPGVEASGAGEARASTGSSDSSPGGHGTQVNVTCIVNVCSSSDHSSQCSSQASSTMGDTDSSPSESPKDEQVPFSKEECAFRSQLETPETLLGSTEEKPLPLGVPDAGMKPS

T2: ΔCRD4-TNFR2 protein (with CRD4 deletion), on CHO-S cells (human, UniProt P20333 23-461)
T2 construct: also called CHO-SΔCRD4-TNFR2; TNFR2 lacking CRD4
T2 sequence: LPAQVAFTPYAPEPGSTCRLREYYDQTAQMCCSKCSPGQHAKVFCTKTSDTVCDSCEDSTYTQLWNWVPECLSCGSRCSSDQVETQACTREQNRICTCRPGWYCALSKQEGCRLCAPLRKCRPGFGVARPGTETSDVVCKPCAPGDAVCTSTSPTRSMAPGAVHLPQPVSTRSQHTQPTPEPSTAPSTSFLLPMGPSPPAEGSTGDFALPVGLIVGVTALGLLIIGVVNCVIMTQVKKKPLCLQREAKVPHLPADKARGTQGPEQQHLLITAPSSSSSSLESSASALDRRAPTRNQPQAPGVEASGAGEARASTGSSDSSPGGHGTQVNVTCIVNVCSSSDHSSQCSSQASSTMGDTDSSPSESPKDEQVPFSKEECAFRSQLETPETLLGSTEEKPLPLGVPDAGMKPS


Columns and labels:
[1] = target: T1, human TNFR2 (expressed on cells); assay: flow cytometry competition, CHO cells with human TNFR2, antibody 10 µg/mL, Biotin-hTNFα 0.5 µg/mL
Experimental: (§1) 30 μl of Biotin-hTNFα (Acro Biosystems, Cat #: TNA-H82E1) was added to each well (with a final concentration of 0.5 μg/mL in each well). The cells with Biotin-hTNFα and the antibodies were incubated at 4° C. for 30 minutes.
(§2) The signals for AF647 and PE were determined by flow cytometry (Thermo Attune NX).

[2] = target: T1, human TNFR2 (expressed on cells); assay: flow cytometry competition, CHO cells with human TNFR2, antibody 2.5 µg/mL, Biotin-hTNFα 0.5 µg/mL
Experimental: as §1, §2

[3] = target: T2, ΔCRD4-TNFR2 protein (with CRD4 …); assay: FACS on CHO-S cells with ΔCRD4-TNFR2
Text: TNFR2 has four cysteine rich domains (CRD). In another experiment, FACS was used to detect the binding of anti-hTNFR2 antibodies to TNFR2 proteins with different structural domains. Secondary antibody (Alexa Fluor® 647 AffiniPure F(ab′) 2 Fragment Goat Anti-Human IgG, Fcγ fragment specific, Jackson ImmunoResearch Laboratories, Inc., Cat #: 151524) was used. The fluorescence-labeled secondary antibody can attach to the Fc region of the anti-hTNFR2 antibodies so that the anti-hTNFR2 antibodies that are bound to the ΔCRD cells can be detected by FACS. Specifically, ΔCRD1-TNFR2 protein (with CRD1 deleteion), ΔCRD2-TNFR2 protein (with CRD2 deleteion), ΔCRD3-TNFR2 protein (with CRD3 deleteion) or ΔCRD4-TNFR2 protein (with CRD4 deleteion) were expressed in CHO-S cells respectively, and then the binding between the cells and different anti-hTNFR2 antibodies was detected.

[4] = target: T1, human TNFR2 (expressed on cells); assay: cell-based or functional assay

percentage of tested cells that had Streptavidin signals [1] [%]	percentage of tested cells that had Streptavidin signals [2] [%]	binding result [3]	EC50 (read off the curve) [4] [µg/mL]	Binder
51.9	54.5	–	–	BC-1F10-IgG1 (antibody, V domains shown, Human VH/VL joined to the human IgG1 subtype) VH: QVQLQQWGAGLLKPSETLSLICAVYDGSFSGDYWSWIRQPPGKGLEWIGEINHSGSTNYNPSLKSRVTISVDTSKNQFSLKLSSVTAADTAVYYCARGHWNYDYYYGMDVWGQGTTVTVSS VL: not shown
75.1	87.2	–	–	BC-1B6-IgG1 (antibody, V domains shown, Human VH/VL joined to the human IgG1 subtype) VH: QVQLVESGGGVVQPGRSLRLSCAASGFTFSNFGMHWVRQAPGKGLEWVAVIWYEGSDKYYADSVKGRFTISRDNSKNTLYLQMNSLRAEDTAVYYCARDSSWGFLLYGMDVWGQGTTVTVSS VL: DVVMTQSPLSLPVTLGQPASISCRSSRSLEYSDGNTYLNWFQQRPGQSPRRLIYKVSNRDSGVPDRFSGSGSGTAFTLKISGVEAEDVGVYYCMQGTHWPPTFGGGTKVEIK
71.1	81.5	no binding	~0.4	BC-1C3-IgG1 (antibody, V domains shown, Human VH/VL joined to the human IgG1 subtype) VH: QVQLVESGGGVVHPGKSLRLSCAASGFTFNIYGMHWVRQAPGKGLEWVALISYDGNDKYFADSVKGRFTISRDNSKNTLYLQMNSLRAEDTAVYYCAKAVDTAVVTFFDYWGQGTLVTVSS VL: EIVMTQSPVTLSVSPGERATLSCRASQSVSSNLAWYQQKPGQAPRLLIYSASTRATGIPARFSGSGSGTEFTLTISSLQSEDLAVYYCQQYSNWPFTFGPGTKVDIK
12	29.9	–	–	BC-1A8-IgG1 (antibody, V domains shown, Fully human VH/VL joined to the human IgG1 subtype, kappa light chain (RenMab mice)) VH: QVQLQQSGPGLVKPSQTLSLTCAISGDSVSSNSAAWNWIRQSPSRGLEWLGRTYYRSKWYNDYALSVKSRITINPETSKNQFSLQLNSVTPEDTAVYYCAREDGVGGTKDYFDYWGQGTLVTVSS VL: DIQMTQSPSSLSASVGDRVTITCQASQDIDNYLNWYQQKPGKAPKLLIYDVSNLEIGVPSRFSGSGSGTDFTFTISSLQPEDIATYYCQQYDNLPLTFGQGTRLEIK
18.5	59.5	–	–	BC-1F4-IgG1 (antibody, V domains shown, Human VH/VL joined to the human IgG1 subtype) VH: QVQLQQSGPGLVKPSQTLSLTCAISGDSVSSDSSAWNWIRQSPSRGLEWLGRTYYRSKWYNDYTVSVKSRITINPDTSKNQFSLQLNSVTPEDTAVYYCAREDGVGGTKDYFDYWGQGTLVTVSS VL: DIQMTQSPSSLSASVGDRVTITCQASQDISNYLNWYQQKPGKAPKLLIYDASNLETGVPSRFSGSGSGTDFTFTINSLQPEDFATYFCQQYDNLPITFGQGTRLEIK
